Assay results: paper PMC8976148 (2022)
Each block holds one binder with its values, some of them ahead of it.

Target: T1, Biotinylated N-Avitagged-TEAD4^217-434 (UniProt Q15561 217-434, biotin (biotinylated Avitag))
T1 chain: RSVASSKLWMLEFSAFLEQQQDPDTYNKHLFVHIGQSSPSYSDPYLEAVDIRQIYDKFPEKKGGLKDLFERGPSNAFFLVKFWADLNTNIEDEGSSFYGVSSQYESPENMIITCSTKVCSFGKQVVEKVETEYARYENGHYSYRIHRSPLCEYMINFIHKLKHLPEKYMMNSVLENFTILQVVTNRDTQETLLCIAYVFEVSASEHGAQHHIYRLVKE
Assay: FRET

IC50: 7 nM
B1: YAP^50-171 with a cysteine inserted at position 172 (domain or fragment)
chain: AGHQIVHVRGDSETDLEALFNAVMNPKTANVPQTVPMRLRKLPDSFFKPPEPKSHSRQASTDAGTAGALTPQHVRAHSSPASLQLGAVSPGTLTPTGVVSGPAATPTAQHLRQSSFEIPDDVC

IC50: 11 nM
B2: YAP^50-171 (domain or fragment)
chain: AGHQIVHVRGDSETDLEALFNAVMNPKTANVPQTVPMRLRKLPDSFFKPPEPKSHSRQASTDAGTAGALTPQHVRAHSSPASLQLGAVSPGTLTPTGVVSGPAATPTAQHLRQSSFEIPDDV
